From patent US20020137703, “Protection-of-telomere-1 (POT-1) protein and encoding polynucleotides” (published 2002)

T1: SpPot1p (Pot1, full length) (Schizosaccharomyces pombe, UniProt O13988 O13988:1-555)
T1 sequence: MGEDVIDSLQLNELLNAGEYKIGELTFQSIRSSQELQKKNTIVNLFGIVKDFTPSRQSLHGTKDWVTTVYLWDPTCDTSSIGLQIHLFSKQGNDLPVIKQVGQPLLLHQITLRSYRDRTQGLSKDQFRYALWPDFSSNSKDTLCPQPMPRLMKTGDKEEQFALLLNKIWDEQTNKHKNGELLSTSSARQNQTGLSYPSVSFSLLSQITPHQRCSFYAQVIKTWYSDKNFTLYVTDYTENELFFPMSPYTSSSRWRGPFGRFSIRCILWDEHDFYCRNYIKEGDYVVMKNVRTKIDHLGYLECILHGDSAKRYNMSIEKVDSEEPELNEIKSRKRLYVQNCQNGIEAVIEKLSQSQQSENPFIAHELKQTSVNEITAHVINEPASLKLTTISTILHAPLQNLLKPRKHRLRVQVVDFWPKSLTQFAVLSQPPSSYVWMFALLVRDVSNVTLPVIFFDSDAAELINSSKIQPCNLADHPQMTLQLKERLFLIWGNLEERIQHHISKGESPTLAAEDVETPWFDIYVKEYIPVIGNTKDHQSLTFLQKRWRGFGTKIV

T2: hPot1p (Homo sapiens, UniProt Q9NUX5 Q9NUX5:1-634)
T2 sequence: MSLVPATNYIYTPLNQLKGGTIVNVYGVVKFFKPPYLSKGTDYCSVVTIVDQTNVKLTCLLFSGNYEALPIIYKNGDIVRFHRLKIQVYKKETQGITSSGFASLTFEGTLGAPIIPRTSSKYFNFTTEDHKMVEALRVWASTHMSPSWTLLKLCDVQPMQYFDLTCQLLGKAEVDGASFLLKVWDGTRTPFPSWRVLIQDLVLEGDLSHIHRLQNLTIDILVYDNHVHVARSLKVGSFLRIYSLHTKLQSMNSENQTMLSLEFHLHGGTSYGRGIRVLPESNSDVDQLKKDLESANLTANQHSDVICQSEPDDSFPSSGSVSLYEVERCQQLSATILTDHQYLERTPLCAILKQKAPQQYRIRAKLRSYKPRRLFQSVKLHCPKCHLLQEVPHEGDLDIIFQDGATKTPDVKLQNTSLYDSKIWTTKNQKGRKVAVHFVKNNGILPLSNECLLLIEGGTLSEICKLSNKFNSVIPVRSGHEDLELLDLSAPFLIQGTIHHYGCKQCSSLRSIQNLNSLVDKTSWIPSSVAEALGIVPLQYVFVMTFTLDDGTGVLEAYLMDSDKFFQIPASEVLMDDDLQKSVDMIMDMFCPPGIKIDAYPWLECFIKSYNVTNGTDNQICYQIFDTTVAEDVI

T3: SpPot1p N-terminal 22 kDa fragment (Schizosaccharomyces pombe, UniProt O13988 O13988:1-185)
T3 sequence: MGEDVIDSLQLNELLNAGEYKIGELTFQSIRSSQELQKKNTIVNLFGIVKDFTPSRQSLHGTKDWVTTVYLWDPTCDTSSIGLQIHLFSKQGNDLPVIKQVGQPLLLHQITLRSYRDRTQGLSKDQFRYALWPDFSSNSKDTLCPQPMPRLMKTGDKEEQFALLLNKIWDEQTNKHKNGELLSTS

B1: PBoli185 (ssDNA)
DNA: CTGTAAGCATATCATCGGTTACGGTTAC
B2: PBoli54 (ssDNA)
DNA: GTTACAGGTTACGGTTACGG
B3: PT1 (ssDNA)
DNA: GGTTACAGGTTACAGGTTAC
B4: PBoli183 (ssDNA)
DNA: CTGTAAGCATATCATCATTCGAGGTTAC
B5: PBoli86 (ssDNA)
DNA: TGTGGTGTGTGGGTGTGCGGTT
B6: PBoli188 (ssDNA)
DNA: CTGTAAGCGGTTACGGTTACGAATCTCG
B7: PBoli187 (ssDNA)
DNA: CTGTAAGCATATGGTTACTCGAATCTCG
B8: PBoli186 (ssDNA)
DNA: GGTTACGGTTACCATCATTCGAATCTCG
B9: PBoli53 (ssDNA)
DNA: CGGTTACACGGTTACAGGT
B10: PBoli184 (ssDNA)
DNA: GGTTACGCATATCATCATTCGAATCTCG
B11: PBoli52 (ssDNA)
DNA: GGTTACGGTTACAGGTTACA
B12: PBoli110 (ssDNA)
DNA: GGTTACACGGTTACAGGTTACAGGTTACAG
B13: human G-strand (TTAGGG)5 (PBoli179) (ssDNA)
DNA: TTAGGGTTAGGGTTAGGGTTAGGGTTAGGG
B14: S. pombe G-strand (PBoli112) (ssDNA)
DNA: GGTTACACGGTTACAGGTTACAGGTTACAGGGTTACGGTTACG
B15: PBoli177 (ssDNA)
DNA: TTAGGGTTAGGGTTAGGGTT
B16: PBoli178 (ssDNA)
DNA: GGTTAGGGTTAGGGTTAGGG

biological target: T1, SpPot1p (Pot1, full length); assay: listed as SpPot1p-binding oligonucleotide; details: tags: N-terminal V5 and His6 tags plus pQE30 N-terminal His6; E. coli M15

Binding result, binds:
B1, B2, B3, B4, B5, B6, B7, B8, B9, B10, B11, B12

biological target: T2, hPot1p; assay: EMSA; same conditions as SpPot1p; details: tags: N-terminal His6 (pQE30); E. coli; label: 32P

Binding result, binds:
B13

biological target: T3, SpPot1p N-terminal 22 kDa fragment; assay: EMSA; truncated Pot1p-DNA complex seen in mixture with full-length protein; details: tags: N-terminal V5 and His6 tags; present in mixture with full-length protein; label: 5' 32P
Method: FIG. 3B: Same as FIG. 3A except that the added protein contained truncated Pot1p as well as full length protein. Truncated Pot1p-DNA complex is indicated by a closed arrow.
(§1) C-strand ([…]) and G-strand ([…]) were 5′ ³²P-labeled using T4 polynucleotide kinase and γ-³²P-ATP. Duplex DNA was generated by annealing equimolar amounts of radiolabeled C-strand and unlabelled G-strand. Binding reactions (10 μl) were carried out in 25 mM HEPES (pH 7.5), 1 mM EDTA, 50 mM NaCl, 5% glycerol, and 2.5 μM PBoli109 ([…]) as non-specific competitor. Pot1p (50 ng) was incubated with the indicated DNA substrates (1 ng) for 15 min at 20° C. Complexes were analyzed by electrophoresis at 4° C. through a 4-20% TBE gel (Invitrogen) run at 150 V for 80 min. The Pot1p-DNA complex is indicated by an open arrow in FIG. 3A. […] Truncated Pot1p-DNA complex is indicated by a closed arrow.

Binding result, binds:
B14

biological target: T2, hPot1p; assay: listed as hPot1p-binding oligonucleotide; details: tags: N-terminal His6 (pQE30); E. coli

Binding result, binds:
B15, B16

biological target: T1, SpPot1p (Pot1, full length); assay: EMSA; 25 mM HEPES pH 7.5, 1 mM EDTA, 50 mM NaCl, 5% glycerol, 20 C, PBoli109 competitor; details: tags: N-terminal V5 and His6 tags plus pQE30 N-terminal His6; E. coli M15; label: 5' 32P
Method: as §1

Binding result, binds:
B14
